# Results from patent US12241890B2, “Methods for generating barcoded nucleic acid molecules using fixed cells” (10X Genomics, Inc., priority 2019, dated 2025).
# B1: Proteinase K: the protease, Proteinase K (Sigma-Aldrich, cat. #AM258) (protein, UniProt P06873 106-384, looked up)
# Proteinase K: AAQTNAPWGLARISSTSPGTSTYYYDESAGQGSCVYVIDTGIEASHPEFEGRAQMVKTYYYSSRDGNGHGTHCAGTVGSRTYGVAKKTQLFGVKVLDDNGSGQYSTIIAGMDFVASDKNNRNCPKGVVASLSLGGGYSSSVNSAAARLQSSGVMVAVAAGNNNADARNYSPASEPSVCTVGASDRYDRRSSFSNYGSVLDIFGPGTSILSTWIGGSTRSISGTSMATPHVAGLAAYLMTLGKTTAASACRYIADTANKGDLSNIPFGTVNLLAYNNYQA
# B2: Subtilisin A: protease Subtilisin A from Bacillus licheniformis (Sigma-Aldrich, cat. #P5380) (protein, UniProt P00780 106-379, looked up)
# Subtilisin Carlsberg: AQTVPYGIPLIKADKVQAQGFKGANVKVAVLDTGIQASHPDLNVVGGASFVAGEAYNTDGNGHGTHVAGTVAALDNTTGVLGVAPSVSLYAVKVLNSSGSGSYSGIVSGIEWATTNGMDVINMSLGGASGSTAMKQAVDNAYAKGVVVVAAAGNSGSSGNTNTIGYPAKYDSVIAVGAVDSNSNRASFSSVGAELEVMAPGAGVYSTYPTNTYATLNGTSMASPHVAGAAALILSKHPNLSASQVRNRLSSTATYLGSSFYYGKGLINVEAAAQ
# Legend:
# Assay type in all cases: cell-based
# PFA-fixed Jurkats cells [1] = experiment: RNA yield and DV200 from PFA-fixed Jurkats after Proteinase K with or without compounds (1) and/or (8) (Example 5); settings: 4% PFA-fixed Jurkats, 53° C./45 min
# Procedure: A. Protease preparation: A stock solution of 20 mg/mL Proteinase K (Sigma-Aldrich, cat. #_AM258) was stored at −20° C.
# (§1) B. Un-fixing agent stock solutions: A stock solution of the un-fixing agent of 100 mM compound (1) in 30 mM Tris-HCl, 1 mM EDTA, pH 6.8, was prepared and stored at room temperature. A stock solution of the un-fixing agent of 100 mM compound (8) in 30 mM Tris-HCl, 1 mM EDTA, pH 6.8, was prepared and stored at room temperature.
# (§2) C. Fixed cell preparation: Dissociated single cells (Jurkats) were pelleted by 400 g centrifugation for 5 minutes and the supernatant removed. A fixing reagent solution of 4% PFA in PBS with 0.2 U/μL Qiagen RNAse Inhibitor (Qiagen, cat. #129916) was added to the pelleted cells and the mixture incubated at 4° C. overnight. The resulting fixed cells were quenched with 10% FBS in PBS and spun down for 5 minutes at 500 g, 4° C. 150,000 fixed cells were washed once in PBS then resuspended in 100 μL, 30 mM Tris-HCL, 1 mM EDTA, pH 6.8.
# D. Cell un-fixing/protease treatment: RNAse Inhibitor was added to the fixed cell solution together with one of the following: (a) 0.1 mg/mL Proteinase K protease; (b) 0.2 mg/mL Proteinase K protease; (c) 0.4 mg/mL Proteinase K protease; (d) 0.2 mg/mL Proteinase K protease and 50 mM compound (1); (e) 0.4 mg/mL Proteinase K protease and 50 mM compound (1); (f) 0.2 mg/mL Proteinase K protease and 50 mM compound (8); (g) 0.4 mg/mL Proteinase K protease and 50 mM compound (8); (h) 0.2 mg/mL Proteinase K protease and 25 mM compound (8) and 25 mM compound (1); or (i) 0.4 mg/mL Proteinase K protease and 25 mM compound (8) and 25 mM compound (1). The fixed cell solutions treated with Proteinase K protease and with or without the un-fixing agents of compounds (1) and/or (8) were allowed to incubate at 53° C. for 45 min. The resulting cell solutions were spun down for 5 minutes at 500 g, 4° C., and the supernatant and pellet fractions were collected separately.
# (§3) E. RNA quantitation: RNA extraction of the collected fractions was carried out using Qiagen 96 Kit (Qiagen, cat. #74181), bulk RNA sequencing, and/or single cell 3′ sequencing. Control samples of fresh cells, fresh cells with un-fixing conditions, and fixed cells without un-fixing treatment were also prepared and RNA extracted. RNA yield was assessed by Qubit HS Assay (Q32855) and yield and DV200 quality metric was assessed by Agilent 4200 High Sensitivity ScreenTape (5067-5579).
# PFA-fixed Jurkats cells [2] = experiment: Bulk un-fixing, then single-cell partition barcoding, 3'-RT and cDNA electropherogram (Example 7); settings: Fresh cells partitioned with the RT assay reagent mix and the protease
# Procedure: A. Protease preparation: A stock solution of 20 mg/mL Proteinase K (Sigma-Aldrich, cat. #AM258) was stored at −20° C.
# B. Un-fixing agent of compound (8) stock solutions: A stock solution of the un-fixing agent of 100 mM compound (8) in 30 mM Tris-HCl, 1 mM EDTA, pH 6.8, was prepared and stored at room temperature.
# as §2
# D. Cell un-fixing/protease treatment: RNAse Inhibitor was added to the fixed cell solution together with 0.1 mg/mL Proteinase K and 50 mM compound (8). The fixed cell solution treated with the protease and compounds (8) were allowed to incubate at 53° C. for 45 min. The resulting cell solutions were spun down for 5 minutes at 500 g, 4° C., and the supernatant and pellet fractions were collected separately. […]
# PFA-fixed Jurkats cells [3] = experiment: RNA yield and DV200 from PFA-fixed Jurkats after Subtilisin A with or without compound (1) (Example 2); settings: 4% PFA-fixed Jurkats, 50 mM compound (1) where present
# Procedure: Materials and Methods: A protease stock solution of 100 mg/ml Subtilisin A from Bacillus licheniformis (Sigma-Aldrich, cat. #P5380) was prepared in H2O and stored at −20° C. A stock solution of the un-fixing agent of 100 mM compound (1) in 30 mM Tris-HCl, 1 mM EDTA, pH 6.8, was prepared and stored at room temperature. Dissociated single cells (Jurkats) were pelleted by 400 g centrifugation for 5 minutes and the supernatant removed. A fixing reagent solution of 4% PFA in PBS with 0.2 U/μL Qiagen RNAse Inhibitor (Qiagen, cat. #129916) was added to the pelleted cells and the mixture incubated at 4° C. overnight. The resulting fixed cells were quenched with 10% FBS in PBS and spun down for 5 minutes at 500 g, 4° C. 150,000 fixed cells were washed once in PBS then resuspended in 100 μL, 30 mM Tris-HCL, 1 mM EDTA, pH 6.8. RNAse Inhibitor was added to the fixed cell solution together with one of the following: (a) 5 mg/mL Subtilisin A; or (b) 5 mg/mL Subtilisin A and 50 mM compound (1). The fixed cell solution with Subtilisin A protease and with or without the un-fixing agent of compound (1) was allowed to incubate at 8° C. for 2 hours, followed by 15 minutes at 70° C. shaking continuously at 300 rpm on an Eppendorf Thermomixer. The resulting cell solutions were spun down for 5 minutes at 500 g, 4° C., and the supernatant and pellet fractions were collected separately. RNA extraction of the collected fractions was carried out using Qiagen 96 Kit (Qiagen, cat. #74181), bulk RNA sequencing, and/or single cell 3′ sequencing. Control samples of fresh cells, fresh cells with un-fixing conditions, and fixed cells without un-fixing treatment were also prepared and RNA extracted. RNA yield was assessed by Qubit HS Assay (Q32855) and yield and DV200 quality metric was assessed by Agilent 4200 High Sensitivity ScreenTape (5067-5579).
# PFA-fixed Jurkats cells [4] = experiment: RNA yield and DV200 from PFA-fixed Jurkats after Subtilisin A with or without compounds (1) and/or (8) (Example 4); settings: 5 mg/mL Subtilisin A
# Procedure: A. Protease preparation: A protease stock solution of 100 mg/ml Subtilisin A from Bacillus licheniformis (Sigma-Aldrich, cat. #P5380) was prepared in H2O and stored at −20° C.
# as §1, §2
# D. Cell un-fixing/protease treatment: RNAse Inhibitor was added to the fixed cell solution together with one of the following: (a) 5 mg/mL Subtilisin A protease; (b) 5 mg/mL Subtilisin A protease and 50 mM compound (1); (c) 5 mg/mL Subtilisin A protease and 50 mM compound (8); (d) 5 mg/mL Subtilisin A protease and 25 mM compound (8) and 25 mM compound (1).
# The fixed cell solutions treated with Subtilisin A protease and with or without the un-fixing agents of compounds (1) and/or (8) were allowed to incubate under one of the following conditions: (1) 8° C. for 2 hours; (2) 8° C. for 2 hours, followed by 15 minutes at 70° C. shaking continuously at 300 rpm on an Eppendorf Thermomixer; (3) 53° C. for 45 min; or (4) 53° C. for 45 min followed by 15 minutes at 70° C. shaking continuously at 300 rpm on an Eppendorf Thermomixer. The resulting cell solutions were spun down for 5 minutes at 500 g, 4° C., and the supernatant and pellet fractions were collected separately.
# as §3
# [5] = Proteinase K at 0.2 mg/mL, un-fixing agent 50 mM (25 mM each in combination)
# [6] = Proteinase K at 0.4 mg/mL, un-fixing agent 50 mM (25 mM each in combination)
# [7] = 5 mg/mL Subtilisin A, 8° C./2 hr
# [8] = un-fixing agent 50 mM (25 mM each in combination), 8° C./2 hr then 70° C./15 min
# [9] = un-fixing agent 50 mM (25 mM each in combination), 53° C./45 min
molecule,measurement,setting,value
B1,"Pellet Qubit Avg (SD), RNA yield",PFA-fixed Jurkats cells [1]; Proteinase K at 0.1 mg/mL,1350
same,"Pellet Tapestation Avg (SD), RNA yield",PFA-fixed Jurkats cells [1]; Proteinase K at 0.1 mg/mL,1804.5
same,"Supernatant Qubit Avg (SD), RNA yield",PFA-fixed Jurkats cells [1]; Proteinase K at 0.1 mg/mL,321.3
same,"Supernatant Tapestation Avg (SD), RNA yield",PFA-fixed Jurkats cells [1]; Proteinase K at 0.1 mg/mL,152.55
same,"Pellet Qubit Avg (SD), RNA yield",PFA-fixed Jurkats cells [1]; [5],107.82
same,"Pellet Tapestation Avg (SD), RNA yield",PFA-fixed Jurkats cells [1]; [5],127.8
same,"Supernatant Qubit Avg (SD), RNA yield",PFA-fixed Jurkats cells [1]; [5],251.1
same,"Supernatant Tapestation Avg (SD), RNA yield",PFA-fixed Jurkats cells [1]; [5],121.05
same,"Pellet Qubit Avg (SD), RNA yield",PFA-fixed Jurkats cells [1]; [6],106.2
same,"Pellet Tapestation Avg (SD), RNA yield",PFA-fixed Jurkats cells [1]; [6],76.725
same,"Supernatant Qubit Avg (SD), RNA yield",PFA-fixed Jurkats cells [1]; [6],266.4
same,"Supernatant Tapestation Avg (SD), RNA yield",PFA-fixed Jurkats cells [1]; [6],125.55
same,cDNA electropherogram profile from single-cell 3'-RT (FIG. 11B),PFA-fixed Jurkats cells [2],no mound profile
B2,"Pellet Qubit Avg (SD), RNA yield",PFA-fixed Jurkats cells [3]; [7],21
same,"Pellet Tapestation Avg (SD), RNA yield",PFA-fixed Jurkats cells [3]; [7],21
same,"Supernatant Tapestation Avg (SD), RNA yield",PFA-fixed Jurkats cells [3]; [7],8
same,RNA recovery relative to fresh cells,"PFA-fixed Jurkats cells [3]; Subtilisin A, 2 h at 8° C.",about 7%
same,"Pellet Qubit Avg (SD), RNA yield",PFA-fixed Jurkats cells [4]; 8° C./2 hr,108.4
same,"Pellet Tapestation Avg (SD), RNA yield",PFA-fixed Jurkats cells [4]; 8° C./2 hr,49
same,"Supernatant Qubit Avg (SD), RNA yield",PFA-fixed Jurkats cells [4]; 8° C./2 hr,0
same,"Pellet Qubit Avg (SD), RNA yield",PFA-fixed Jurkats cells [4]; [8],106
same,"Pellet Tapestation Avg (SD), RNA yield",PFA-fixed Jurkats cells [4]; [8],58
same,"Supernatant Qubit Avg (SD), RNA yield",PFA-fixed Jurkats cells [4]; [8],398
same,"Supernatant Tapestation Avg (SD), RNA yield",PFA-fixed Jurkats cells [4]; [8],231
same,"Pellet Qubit Avg (SD), RNA yield",PFA-fixed Jurkats cells [4]; [9],144
same,"Pellet Tapestation Avg (SD), RNA yield",PFA-fixed Jurkats cells [4]; [9],244
same,"Supernatant Qubit Avg (SD), RNA yield",PFA-fixed Jurkats cells [4]; [9],245
same,"Supernatant Tapestation Avg (SD), RNA yield",PFA-fixed Jurkats cells [4]; [9],252
